Columns and labels:
[1] = molecular target: sugar transporter SemiSWEET, C-terminally GFP-tagged
[2] = molecular target: TrkA^TM, truncation mutant of TrkA containing only the transmembrane domain, C-terminally GFP-tagged
[3] = molecular target: LeuT-AA, dimer interface mutant of LeuT (F488A and Y489A), C-terminally GFP-tagged
[4] = molecular target: TrkA^ECD+TM, truncation mutant of TrkA containing the extracellular and transmembrane domains, C-terminally GFP-tagged
[5] = molecular target: TrkA^ECD+TM, truncation mutant of TrkA containing the extracellular and transmembrane domains, C-terminally GFP-tagged; remark: listed apart in the source
[6] = molecular target: T1, potassium ion channel KcsA, C-terminally GFP-tagged, P0A334; conditions: remark: other sources report otherwise
T1 chain: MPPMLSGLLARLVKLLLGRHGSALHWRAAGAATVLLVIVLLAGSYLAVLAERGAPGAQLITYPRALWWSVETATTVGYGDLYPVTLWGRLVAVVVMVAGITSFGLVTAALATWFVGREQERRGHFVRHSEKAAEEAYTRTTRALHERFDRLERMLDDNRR

sugar transporter SemiSWEET, C-terminally GFP-tagged (natural protein)
stoichiometry N [1]: 2

TrkA^TM, truncation mutant of TrkA containing only the transmembrane domain, C-terminally GFP-tagged (domain or fragment)
percent dimer (no NGF) [2]: 35% | percent higher-order oligomers (no NGF) [2]: 2% | percent monomer (no NGF) [2]: 60%

LeuT-AA, dimer interface mutant of LeuT (F488A and Y489A), C-terminally GFP-tagged (natural protein)
percent dimer [3]: 36% | percent monomer [3]: 53%

TrkA^ECD+TM, truncation mutant of TrkA containing the extracellular and transmembrane domains, C-terminally GFP-tagged (domain or fragment)
percent dimer (NGF-treated, fraction 1) [4]: 47% | percent higher-order oligomers (NGF-treated, fraction 1) [4]: 30% | percent monomer (NGF-treated, fraction 1) [4]: 22% | percent dimer (no NGF) [5]: 40% | percent higher-order oligomers (no NGF) [5]: 5% | percent monomer (no NGF) [5]: 55%

B1: potassium ion channel KcsA, C-terminally GFP-tagged, P0A334 1-160 (natural protein)
chain: MPPMLSGLLARLVKLLLGRHGSALHWRAAGAATVLLVIVLLAGSYLAVLAERGAPGAQLITYPRALWWSVETATTVGYGDLYPVTLWGRLVAVVVMVAGITSFGLVTAALATWFVGREQERRGHFVRHSEKAAEEAYTRTTRALHERFDRLERMLDDNRR
stoichiometry N [6]: 4
